{"source": "patent US20260151429A1", "about": "(NANJING LEGEND BIOTECH, published 2026)", "molecules": {"B1": {"name": "VHH1366 (VHH)", "VHH": "QVKLEESGGGSVEAGGSLKLSCAGFGDMFSSCGMGWYRQAPGKEREMVSRISPRGTSITIDSVRGRFTISRDNAKNTLALEMNSLKIEDTAVYYCAAGGDSASRTPRCRSLNWGQGTQVTVSS"}, "B2": {"name": "VHH1354 (VHH)", "VHH": "AVQLVDSGGGLVQPGGSLRLSCAASGFTFSTYGMSWVRQPPGKGLEWVSGISPGGDHTTYADSVKGRFTISRDNAKNTLYLQLSSLKTEDTAMYYCTTVPGRSRYGNYNPRGQGTQVTVSS"}, "B3": {"name": "VHH1353 (VHH)", "VHH": "EVQLVESGGGSVQAGGSLRLSCAASGYTSSTNCMGWFRQAPGKEREGVASIRGTGGSTYYADSVKGRFTISRDDGKNTLYLQMNSLKPEDTAMYYCAAATGTSFSEARCVTAPPYKYPYWGQGTQVTVSS"}, "B4": {"name": "VHH1339 (VHH)", "VHH": "EVQLVESGGGSVQAGGSLKLSCAASGDIFSMCGMGWYRQAPGKQREMVSRISPRGTAIYPDSLKGRFTVSRDNAKNTLYLQMNSLNTEDTAVYYCAAGGDSASRTPHCRSLNWGQGTQVTVSS"}, "B5": {"name": "VHH1343 (VHH)", "VHH": "QVKLEESGGGSVQAGGSLKLSCAASGYNFSKCGMGWFRRALREERELVAEISNDGTTTYDDSVKGRFTISRDNVKNTVYLQMNNLKTEDTAVYYCASRNPCGLLWGQGTQVTVSS"}, "B6": {"name": "VHH1330-mIgG1Fc (Fc fusion)", "chain": "QVQLVESGGGLVQPGGSLTLSCAASGYRISLYKMGWFRQDPGKQREGVAAVDRNGRTIYADSVKGRFTIYQDNAKNTLDLQMNSLKPEDTAMYYCAADLWRIGSPASLSPTDYGDWGQGTQVTVSSVPRDCGCKPCICTVPEVSSVFIFPPKPKDVLTITLTPKVTCVVVDISKDDPEVQFSWFVDDVEVHTAQTQPREEQFNSTFRSVSELPIMHQDWLNGKEFKCRVNSAAFPAPIEKTISKTKGRPKAPQVYTIPPPKEQMAKDKVSLTCMITDFFPEDITVEWQWNGQPAENYKNTQPIMNTNGSYFVYSKLNVQKSNWEAGNTFTCSVLHEGLHNHHTEKSLSHSPGK", "notes": "also called VHH-mIgG1Fc chimeric antibody; single VHH chimeric anti-IL13RA2 antibody"}, "B7": {"name": "VHH2110 (VHH)", "VHH": "QVKLEESGGGSVQAGGSLRLSCAASGIPTRTLFMGWFRQAPGKEREEVARISDNGNTGYADFVKGRFTISKDNSKNTLYLQMSSLKPDDTAMYYCSARRASYSATVLWGQGTQVTVSS"}, "B8": {"name": "VHH1345-mIgG1Fc (Fc fusion)", "chain": "AVQLVDSGGGSAQVGGSLKLSCTASGYIFSSCGMGWYRQAPGKKREFVTSVSKYGTTTYPDSVKGRFTISLDNAKNTAYLQMNSLKIEDTAVYYCTTLASRGTTCPASVYSGPGTQVTVSSVPRDCGCKPCICTVPEVSSVFIFPPKPKDVLTITLTPKVTCVVVDISKDDPEVQFSWFVDDVEVHTAQTQPREEQFNSTFRSVSELPIMHQDWLNGKEFKCRVNSAAFPAPIEKTISKTKGRPKAPQVYTIPPPKEQMAKDKVSLTCMITDFFPEDITVEWQWNGQPAENYKNTQPIMNTNGSYFVYSKLNVQKSNWEAGNTFTCSVLHEGLHNHHTEKSLSHSPGK", "notes": "as for B6"}, "B9": {"name": "VHH1330-(GGGGS)2-VHH1345-mIgG1Fc (Fc fusion)", "chain": "QVQLVESGGGLVQPGGSLTLSCAASGYRISLYKMGWFRQDPGKQREGVAAVDRNGRTIYADSVKGRFTIYQDNAKNTLDLQMNSLKPEDTAMYYCAADLWRIGSPASLSPTDYGDWGQGTQVTVSSGGGGSGGGGSAVQLVDSGGGSAQVGGSLKLSCTASGYIFSSCGMGWYRQAPGKKREFVTSVSKYGTTTYPDSVKGRFTISLDNAKNTAYLQMNSLKIEDTAVYYCTTLASRGTTCPASVYSGPGTQVTVSSVPRDCGCKPCICTVPEVSSVFIFPPKPKDVLTITLTPKVTCVVVDISKDDPEVQFSWFVDDVEVHTAQTQPREEQFNSTFRSVSELPIMHQDWLNGKEFKCRVNSAAFPAPIEKTISKTKGRPKAPQVYTIPPPKEQMAKDKVSLTCMITDFFPEDITVEWQWNGQPAENYKNTQPIMNTNGSYFVYSKLNVQKSNWEAGNTFTCSVLHEGLHNHHTEKSLSHSPGK", "notes": "Two VHH domains joined by (GGGGS)2 and fused to mouse IgG1 Fc; also called bi-VHH-mIgG1Fc; bi-VHH chimeric anti-IL13RA2 antibody"}}, "key": {"[1]": {"target": "IL13RA2 on tumor cell lines (U251MG.Luc, U87MG.Luc, U87MG.Luc clone2, U138MG.Luc, A375.Luc) (UniProt Q14627)", "assay": "cell-based or functional assay"}, "[2]": {"target": "T1, recombinant human IL13RA2 (human, UniProt Q14627 27-343)", "T1 construct": "Coating antigen of the phage ELISA screen; The immunogen was ACRO Cat. No. IL2-H52H5; also called antigen proteins", "T1 sequence (looked up)": "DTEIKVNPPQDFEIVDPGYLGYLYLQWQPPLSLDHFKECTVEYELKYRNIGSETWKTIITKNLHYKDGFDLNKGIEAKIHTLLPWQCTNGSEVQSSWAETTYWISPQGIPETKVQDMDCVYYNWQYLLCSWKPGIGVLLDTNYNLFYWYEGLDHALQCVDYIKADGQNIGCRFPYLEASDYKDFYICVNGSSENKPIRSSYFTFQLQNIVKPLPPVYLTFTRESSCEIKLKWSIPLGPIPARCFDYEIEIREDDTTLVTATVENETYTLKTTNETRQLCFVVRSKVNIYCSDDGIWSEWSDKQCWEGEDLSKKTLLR", "assay": "phage ELISA on plates coated with recombinant human IL13RA2, anti-M13-HRP, A450", "procedure": "Individual output phage clones were grown in 96-deep-well plates and rescued by M13KO7 helper phage overnight. To identify clones that bound to antigen proteins, 96-well ELISA microtiter plates were coated with recombinant human IL13RA2 in coating buffer overnight at 4° C., and the plates were then blocked with blocking buffer. After blocking, approximately 50 µL per well of phage supernatant from overnight cell culture was added to the plates for 1.5-hour incubation at 4° C. The plates were washed four times, and the HRP-conjugated anti-M13 monoclonal antibody was added to the plates for 45-minute incubation at 4° C. The plates were again washed five times and substrate solution was added to the wells for color developing. Absorbance at 450 nm was measured for each well."}, "[3]": {"target": "T2, Recombinant IL13RA2-His protein (Sino Biological, Cat #10350-H08H) (human, UniProt Q14627 27-343)", "T2 construct": "Bought protein; also called human IL13RA2 his-tag protein; IL13AR2; not shown: His tag", "T2 sequence (looked up)": "T1 sequence (looked up)", "assay": "SPR, Biacore 2000; VHH-mIgG1Fc coupled to CM5 chip, IL13RA2-His injected; 1:1 Langmuir fit", "procedure": "The affinity of each VHH-mIgG1Fc for IL13AR2 was determined by SPR using a BIACORE® 2000 analytical system (GE Healthcare). Briefly, each VHH-mIgG1Fc protein was covalently coupled to a CM5(s) sensor chip using 4 μg/ml VHH-mIgG1Fc. Recombinant IL13RA2-His protein (Sino Biological, Cat #10350-H08H) was serially diluted in running buffer (10 mM HEPES, 150 mM NaCl, 3 mM EDTA, 0.05% Tween-20, pH 7.4) and injected at a flowrate of 10 μl/min followed by dissociation. The association and dissociation rate constants were determined using the BIACORE® 2000 evaluation software version 3.0 (Langmuir binding, local fit, 1:1 binding model)."}}}
{"molecule": "IL13-E13Y CAR (from UniProt P35225 35-146)", "values": [{"measurement": "IFNγ release level, CAR-T co-cultured with U87MG.Luc (UnT 80)", "setting": "[1]", "value": 580, "unit": "pg/mL"}, {"measurement": "IFNγ release level, CAR-T co-cultured with U138MG.Luc (UnT 70)", "setting": "[1]", "value": 252, "unit": "pg/mL"}, {"measurement": "IFNγ release level, CAR-T co-cultured with U251MG.Luc (UnT 196)", "setting": "[1]", "value": 4360, "unit": "pg/mL"}]}
{"molecule": "B1", "values": [{"measurement": "binding result", "setting": "[2]", "value": "binds"}]}
{"molecule": "B2", "values": [{"measurement": "binding result", "setting": "[2]", "value": "binds"}]}
{"molecule": "B3", "values": [{"measurement": "binding result", "setting": "[2]", "value": "binds"}]}
{"molecule": "B4", "values": [{"measurement": "binding result", "setting": "[2]", "value": "binds"}]}
{"molecule": "B5", "values": [{"measurement": "binding result", "setting": "[2]", "value": "binds"}]}
{"molecule": "B6", "values": [{"measurement": "Kd", "setting": "[3]", "value": 60, "unit": "nM"}, {"measurement": "koff", "setting": "[3]", "value": 0.0022, "unit": "s⁻¹"}, {"measurement": "kon", "setting": "[3]", "value": 37000, "unit": "M⁻¹ s⁻¹"}]}
{"molecule": "B7", "values": [{"measurement": "binding result", "setting": "[2]", "value": "binds"}]}
{"molecule": "B8", "values": [{"measurement": "Kd", "setting": "[3]", "value": 14, "unit": "nM"}, {"measurement": "koff", "setting": "[3]", "value": 0.00045, "unit": "s⁻¹"}, {"measurement": "kon", "setting": "[3]", "value": 33000, "unit": "M⁻¹ s⁻¹"}]}
{"molecule": "B9", "values": [{"measurement": "Kd", "setting": "[3]", "value": 0.71, "unit": "nM"}, {"measurement": "koff", "setting": "[3]", "value": "5.4e-05", "unit": "s⁻¹"}, {"measurement": "kon", "setting": "[3]", "value": 75000, "unit": "M⁻¹ s⁻¹"}]}
